Measured values taken from patent US11504441B2, “Radiolabeled compounds targeting the prostate-specific membrane antigen” (PROVINCIAL HEALTH SERVICES AUTHORITY, priority 2019, dated 2022).

Assay: in vivo
Parameters: species or system mice
Details: male, NODSCID 1L2RγKO, mouse, iv, total radioactivity

## COc1ccc(CCCC(=O)NCC(=O)N[C@@H](CCCCNC(=O)CN2CCN(CC(=O)O)CCN(CC(=O)O)CCN(CC(=O)O)CC2)C(=O)NC[C@H]2CC[C@H](C(=O)N[C@@H](Cc3c4ccccc4cc4ccccc34)C(=O)NCCCC[C@H](NC(=O)N[C@@H](CCCC(=O)O)C(=O)O)C(=O)O)CC2)cc1 [177Lu-HTK03170, metal not drawn]
Adrenal glands uptake
  tissue uptake at 1 h: 3.34 ± 0.45 %ID/g
  tissue uptake at 4 h: 1.78 ± 0.45 %ID/g
  tissue uptake at 24 h: 0.5 ± 0.16 %ID/g
  tissue uptake at 72 h: 0.27 ± 0.11 %ID/g
  tissue uptake at 120 h: 0.22 ± 0.18 %ID/g
Blood uptake
  tissue uptake at 1 h: 16.9 ± 1.97 %ID/g
  tissue uptake at 4 h: 8.34 ± 1.67 %ID/g
  tissue uptake at 24 h: 0.59 ± 0.13 %ID/g
  tissue uptake at 72 h: 0.06 ± 0.02 %ID/g
  tissue uptake at 120 h: 0.02 ± 0.01 %ID/g
Bone uptake
  tissue uptake at 1 h: 0.89 ± 0.27 %ID/g
  tissue uptake at 4 h: 0.45 ± 0.13 %ID/g
  tissue uptake at 24 h: 0.06 ± 0.04 %ID/g
  tissue uptake at 72 h: 0.03 ± 0.02 %ID/g
  tissue uptake at 120 h: 0.02 ± 0.01 %ID/g
Brain uptake
  tissue uptake at 1 h: 0.23 ± 0.04 %ID/g
  tissue uptake at 4 h: 0.13 ± 0.03 %ID/g
  tissue uptake at 24 h: 0.02 ± 0.01 %ID/g
  tissue uptake at 72 h: 0.01 %ID/g
Fat uptake
  tissue uptake at 1 h: 1.38 ± 0.45 %ID/g
  tissue uptake at 4 h: 0.6 ± 0.13 %ID/g
  tissue uptake at 24 h: 0.12 ± 0.04 %ID/g
  tissue uptake at 72 h: 0.04 ± 0.02 %ID/g
  tissue uptake at 120 h: 0.03 ± 0.03 %ID/g
Heart uptake
  tissue uptake at 1 h: 3.6 ± 0.52 %ID/g
  tissue uptake at 4 h: 1.91 ± 0.4 %ID/g
  tissue uptake at 24 h: 0.26 ± 0.04 %ID/g
  tissue uptake at 72 h: 0.09 ± 0.03 %ID/g
  tissue uptake at 120 h: 0.04 ± 0.02 %ID/g
Intestine uptake
  tissue uptake at 1 h: 1.19 ± 0.25 %ID/g
  tissue uptake at 4 h: 0.61 ± 0.17 %ID/g
  tissue uptake at 24 h: 0.18 ± 0.07 %ID/g
  tissue uptake at 72 h: 0.14 ± 0.11 %ID/g
  tissue uptake at 120 h: 0.04 ± 0.03 %ID/g
Kidneys uptake
  tissue uptake at 1 h: 13.2 ± 1.87 %ID/g
  tissue uptake at 4 h: 9.23 ± 2.18 %ID/g
  tissue uptake at 24 h: 5.8 ± 1.24 %ID/g
  tissue uptake at 72 h: 2.56 ± 0.62 %ID/g
  tissue uptake at 120 h: 1.3 ± 0.55 %ID/g
Lacrimal uptake
  tissue uptake at 1 h: 0.27 ± 0.08 %ID/g
  tissue uptake at 4 h: 0.15 ± 0.07 %ID/g
  tissue uptake at 24 h: 0.04 ± 0.03 %ID/g
  tissue uptake at 72 h: 0.01 ± 0.01 %ID/g
Liver uptake
  tissue uptake at 1 h: 2.67 ± 0.37 %ID/g
  tissue uptake at 4 h: 1.89 ± 0.69 %ID/g
  tissue uptake at 24 h: 0.69 ± 0.27 %ID/g
  tissue uptake at 72 h: 0.36 ± 0.13 %ID/g
  tissue uptake at 120 h: 0.23 ± 0.13 %ID/g
Lungs uptake
  tissue uptake at 1 h: 8.06 ± 1.48 %ID/g
  tissue uptake at 4 h: 4.35 ± 0.82 %ID/g
  tissue uptake at 24 h: 0.72 ± 0.19 %ID/g
  tissue uptake at 72 h: 0.18 ± 0.04 %ID/g
  tissue uptake at 120 h: 0.06 ± 0.03 %ID/g
Muscle uptake
  tissue uptake at 1 h: 1.15 ± 0.19 %ID/g
  tissue uptake at 4 h: 0.58 ± 0.13 %ID/g
  tissue uptake at 24 h: 0.08 ± 0.02 %ID/g
  tissue uptake at 72 h: 0.02 ± 0.01 %ID/g
  tissue uptake at 120 h: 0.01 ± 0.01 %ID/g
Pancreas uptake
  tissue uptake at 1 h: 1.41 ± 0.31 %ID/g
  tissue uptake at 4 h: 0.74 ± 0.18 %ID/g
  tissue uptake at 24 h: 0.12 ± 0.03 %ID/g
  tissue uptake at 72 h: 0.04 ± 0.01 %ID/g
  tissue uptake at 120 h: 0.02 ± 0.02 %ID/g
Salivary uptake
  tissue uptake at 1 h: 2.43 ± 0.33 %ID/g
  tissue uptake at 4 h: 1.31 ± 0.3 %ID/g
  tissue uptake at 24 h: 0.28 ± 0.04 %ID/g
  tissue uptake at 72 h: 0.11 ± 0.03 %ID/g
  tissue uptake at 120 h: 0.05 ± 0.04 %ID/g
Seminal uptake
  tissue uptake at 1 h: 1.22 ± 0.4 %ID/g
  tissue uptake at 4 h: 0.49 ± 0.1 %ID/g
  tissue uptake at 24 h: 0.08 ± 0.02 %ID/g
  tissue uptake at 72 h: 0.04 ± 0.01 %ID/g
  tissue uptake at 120 h: 0.02 ± 0.01 %ID/g
Spleen uptake
  tissue uptake at 1 h: 1.64 ± 0.83 %ID/g
  tissue uptake at 4 h: 0.96 ± 0.29 %ID/g
  tissue uptake at 24 h: 0.45 ± 0.1 %ID/g
  tissue uptake at 72 h: 0.38 ± 0.15 %ID/g
  tissue uptake at 120 h: 0.49 ± 0.38 %ID/g
Stomach uptake
  tissue uptake at 1 h: 0.59 ± 0.12 %ID/g
  tissue uptake at 4 h: 0.42 ± 0.15 %ID/g
  tissue uptake at 24 h: 0.25 ± 0.13 %ID/g
  tissue uptake at 72 h: 0.28 ± 0.33 %ID/g
  tissue uptake at 120 h: 0.05 ± 0.08 %ID/g
Tail uptake
  tissue uptake at 1 h: 6.11 ± 3.05 %ID/g
  tissue uptake at 4 h: 2.66 ± 0.9 %ID/g
  tissue uptake at 24 h: 0.31 ± 0.06 %ID/g
  tissue uptake at 72 h: 0.19 ± 0.12 %ID/g
  tissue uptake at 120 h: 0.08 ± 0.06 %ID/g
Testes uptake
  tissue uptake at 1 h: 2.17 ± 0.32 %ID/g
  tissue uptake at 4 h: 1.83 ± 0.58 %ID/g
  tissue uptake at 24 h: 0.64 ± 0.53 %ID/g
  tissue uptake at 72 h: 0.24 ± 0.04 %ID/g
  tissue uptake at 120 h: 0.14 ± 0.06 %ID/g
Thyroid uptake
  tissue uptake at 1 h: 2.9 ± 0.41 %ID/g
  tissue uptake at 4 h: 1.62 ± 0.42 %ID/g
  tissue uptake at 24 h: 0.37 ± 0.06 %ID/g
  tissue uptake at 72 h: 0.15 ± 0.01 %ID/g
  tissue uptake at 120 h: 0.08 ± 0.05 %ID/g
Tumor uptake
  tissue uptake at 1 h: 27.2 ± 7.55 %ID/g
  tissue uptake at 4 h: 47.6 ± 13.5 %ID/g
  tissue uptake at 24 h: 57.2 ± 15.3 %ID/g
  tissue uptake at 72 h: 59.3 ± 16 %ID/g
  tissue uptake at 120 h: 61.9 ± 22.3 %ID/g
